# In patent publication US20150133308A1 (KOREA ADVANCED INSTITUTE OF SCIENCE AND TECHNOLOGY, published 2015):
# Biological target: T1, human interleukin-6 (human, UniProt P05231 30-212)
# T1 construct: also called hIL-6; IL-6
# Test: phage ELISA, 96-well plate coated with IL-6 and BSA
row,Binder,OD450 on IL-6 relative to BSA [fold]
1,"r-B10 (designed binder, on phage in the ELISA) ETITVSTPIKQIFPDDAFAETIKANLKKKSVTDAVTQNELNSIDQIIANNSDIKSVQGIQYLPNVRYLALGGNKLHDISALKELTNLTYLVLDPNQLQSLPNGVFDKLTNLKELSLWTNQLQSLPDGVFDKLTNLTYLNLAHNQLQSLPKGVFDKLTNLTELDLSYNQLQSLPEGVFDKLTQLKDLRLYQNQLKSVPDGVFDRLTSLQYIWLHDNPWDCTCPGIRYLSEWINKHSGVVRNSAGSVAPDSAKCSGSGKPVRSIICPT",≥ 10
2,"r-F7 (designed binder, on phage in the ELISA) ETITVSTPIKQIFPDDAFAETIKANLKKKSVTDAVTQNELNSIDQIIANNSDIKSVQGIQYLPNVRYLALGGNKLHDISALKELTNLTYLVLDPNQLQSLPNGVFDKLTNLKELSLWTNQLQSLPDGVFDKLTNLTYLNLAHNQLQSLPKGVFDKLTNLTELDLSYNQLQSLPEGVFDKLTQLKDLRLYQNQLKSVPDGVFDRLTSLQYIWLHDNPWDCTCPGIRYLSEWINKHSGVVRNSAGSVAPDSAKCSGSGKPVRSIICPT",≥ 10
